{"source": "the nanobody polyreactivity screen of Harvey et al. (2022)"}
{"test": "yeast display, Sf9 membrane polyspecificity reagent, FACS + sequencing; frameworks hold sequencing errors", "procedure,_shortened": "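A synthetic nanobody library was expressed on Saccharomyces cerevisiae BJ5465 by galactose induction for 36–48 hours. The library was stained for 1 hour at 4 °C with 10% biotinylated, detergent-solubilized Sf9 membrane reagent and enriched with streptavidin microbeads before FACS. Low and high (top ~1%) gates were set on anti-HA fluorescence for expression and streptavidin fluorescence for reagent binding, and each polyreactivity label reflects the gate of origin.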"}
{"sequence": "QVQLVESGRGLVQAGGSLRISCAASGSTFIFNTMGWYRQAPGKEMELVATITGDGRTNYADSVKGRFTISRDNAKNTVYLQMNSLKPEDTAVYYCDADGYDQYPLWSPPGDYWGQGTQVTVSS", "polyreactivity (PSR sort gate)": "low polyreactivity"}
{"sequence": "QVQLVESGGGLVQAGGSLRLSCAASGSIFEDYAMGWYRQAPGKERELVAAIDWGDGDTYYADSVKGRFTISRDNAKNTVYLQMNSLKPEDTAVYYCAADLVGYSGYYFDEEYYWGQGTQVTVSS", "polyreactivity (PSR sort gate)": "high polyreactivity"}
{"sequence": "QVQLVESGGGLVQAGGSLRLSCADCGSIFSSNAKGWYRQEPGKERELVAAISRSACSTYYADSVKGRFTISRDIAKNTVYLQMNSLKQEDTAVYYCNGVTRLGTYDYWGQGSQVTVSS", "polyreactivity (PSR sort gate)": "high polyreactivity"}
{"sequence": "QVQIVESGGCLVQAGGSLRLSWAASGGIFSTNAMGWYRQAPGKERELVAAISRRGGSTYYADSVKGRFTISRDNAKNTGYLQMNSLKPEDTAVYYCNKYLRLFSYGRGYDYWGQGTQVTVSS", "polyreactivity (PSR sort gate)": "high polyreactivity"}
{"sequence": "QDQLVDSGGGLLQAGGSLSLSCAASGHIIQVKTMGWYRQAPGKERELVASISASVGSTYYADSVKGRFTISRDNAKNTVYLQMNSLKPEDTAVYYCAKSLGYSVVRTLSPTGFYYWGQGTQVTVSS", "polyreactivity (PSR sort gate)": "low polyreactivity"}
{"sequence": "QVQLVESGGGLVQAGGSLRLSCAASGRIFSVYGMGWYRQAPGKDRELVAAISSSAGSTNYADSVKGRFTISRDNAKNTVYLQMNSLKPEDTAVYYCAAYYRRVVYYPTAYYIRKYDYWGQGTQVTVSS", "polyreactivity (PSR sort gate)": "high polyreactivity"}
{"sequence": "QVQIVESGGGLLQAGGSLRLSCAASGLTFGSYAMGWYRQAPGKERELVAAISRSGGSTYYADSVKGRFTISRDNAKNTVYLQMNSLKPEDTAVYYCNAVNPYYAPTERRVGFDYWGQGTQVTVSS", "polyreactivity (PSR sort gate)": "high polyreactivity"}
{"sequence": "QVQLLESGGGLVQAGGSLRLSCMASGSILGDRMSWYLQPPGKEHELVATIYDGGITYYADSMKGRFTISRDNAKNTVYLQMNSLRPEDTAVYYCGASFEGYRYNVYCGQGTQVTVSS", "polyreactivity (PSR sort gate)": "low polyreactivity"}
{"sequence": "QVQHVESAAGLVQAGCSLRLSGAASGRIFRGYAMGWSRPAHGNEWELVAGITWGGGSTYYADSVKGRFTISRDKAKNTVYLQMNSLKPEDTAVYYCNAVRPRQWWTHFGYWGQGTQVTVSS", "polyreactivity (PSR sort gate)": "high polyreactivity"}
{"sequence": "QVQLVESGGGLVQAGGSPRLSCAASGSIFSRNTMGWYRQAPGKERELVATITSGSNTNYADSVKGRFTISRDNAKNTVYLQMNSLKPEDTAVYYWGQGTQVTVSS", "polyreactivity (PSR sort gate)": "low polyreactivity"}
{"sequence": "QVQLVESGGGLVQAGGSLRLSCAASGSTFDRYAMGWYRQAPGKERELVAAISWSAGRTYYADSVKGRFTISRDNAKNTVYLQMNSLKPEDTAVNYCAADQIVSGTYDYYWGQGTQVTVAS", "polyreactivity (PSR sort gate)": "low polyreactivity"}
{"sequence": "QVQLVESGGGLVQAGGSLRLSCAASGIIFYGYAMGWYRQAPGKERELVATIRDSGAGTYYADSVKGRFTISRDNAKNTVYLQMNSLKPEDTAVYYCAATGWIRYDSWGQGTQVTVSS", "polyreactivity (PSR sort gate)": "low polyreactivity"}
{"sequence": "QVQLVESGGGLVQAGGSLRLSCAASGSIFRWYAMGWYRQAPGKERELVAVISYGGGSTYYADSVKGRFTISRDNAKNTVYLQMNSLKPEDTAVYYCAADPTWRYYYHYTYYYWGQGTQVTVSS", "polyreactivity (PSR sort gate)": "high polyreactivity"}
{"sequence": "QVQLVESGGGLVQAGGSLRLSCAASGFIFAEYAMGWYRQAPGKERELVVAIDVGGGSTYYADSVKGRFTISGDNAKNTVYLQMNSLKPEDTAVYYCAATQYGYWVPYQGFDYWGQGTQVTVSS", "polyreactivity (PSR sort gate)": "low polyreactivity"}
{"sequence": "QVQLVESGGGLVQAGGSLRLSCAASGSTFFGYAMGWYRQAPGKERELVAAITSGGSTNYADSVKGRFTISRDNAKNTVYLQMNRLIPDDTAVYFCARRWYRGYGYWGQGTQVTVSS", "polyreactivity (PSR sort gate)": "high polyreactivity"}
{"sequence": "QVQLVESGGGLVQAGGSLRLSCAASGIAYTYNAMGRYRQAPGKERELVASISRTGGSTRYADSVKGRFTISRDNAKYTVYLQMNSLKPEDTAVYYCAALSWRYVKYRFDYWGQGTQVTVSS", "polyreactivity (PSR sort gate)": "high polyreactivity"}
{"sequence": "QVQLVESGGGLVQAGGSLRLSCAASGSIFYWYALGWYRQAPGKERELVAAITYSGDRTYYADSVKGRFTISRDNAKNTVYLQMNSLKPEVTAVYYCAKDRGSGPLDYWGQGTQVTVSS", "polyreactivity (PSR sort gate)": "low polyreactivity"}
